In experiment [1] the target is T1, His-tagged (6x) Drosophila histone H1 fusion protein (Drosophila, UniProt P02255 1-256).
T1 sequence (looked up): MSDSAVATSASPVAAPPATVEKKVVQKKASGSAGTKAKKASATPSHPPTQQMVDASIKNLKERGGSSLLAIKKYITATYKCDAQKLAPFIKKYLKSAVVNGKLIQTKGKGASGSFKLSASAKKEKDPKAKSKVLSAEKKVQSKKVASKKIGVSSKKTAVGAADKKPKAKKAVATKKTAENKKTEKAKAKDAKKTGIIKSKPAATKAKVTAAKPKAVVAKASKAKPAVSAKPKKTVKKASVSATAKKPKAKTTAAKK
Kind of experiment: pull-down.

The target of experiment [2] is T2, full-length Drosophila histone H1 fusion protein with a maltose binding protein-tag (Drosophila, UniProt P02255 1-256).
T2 sequence (looked up): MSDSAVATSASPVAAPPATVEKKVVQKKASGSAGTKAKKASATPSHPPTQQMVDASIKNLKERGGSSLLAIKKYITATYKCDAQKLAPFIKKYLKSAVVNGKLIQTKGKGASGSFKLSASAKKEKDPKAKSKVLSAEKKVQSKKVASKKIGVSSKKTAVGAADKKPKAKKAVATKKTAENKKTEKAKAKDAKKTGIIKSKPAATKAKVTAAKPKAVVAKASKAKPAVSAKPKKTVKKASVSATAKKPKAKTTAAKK
Kind of experiment: far-Western, overlay or dot blot.

B1: GST-tagged Chromator chromodomain (219-277) (domain or fragment, Drosophila, UniProt Q86BS3 219-277, looked up)
chain: TEEPVEKIVAKRFNPRRKTHEYLVKWVDRSHHENTWEVMANLERVPYFLQMFEKQLARQ
On to B1, for which the binding result in experiment [1] and in experiment [2] was “binds” throughout.
